Test results taken from patent US20220396635A1 (UNIVERSIT T STUTTGART, published 2022).
Like-named read-outs stand apart in the source and are kept apart here.

B1: scDbhu225xhuU3-scFvhu225 (bispecific antibody)
chain: EVQLVESGGGLVQPGGSLRLSCAASGFSLTNYGVHWVRQAPGKGLEWLGVIWSGGNTDYNTPFTSRFTISRDNSKNTLYLQMNSLRAEDTAVYYCARALTYYDYEFAYWGQGTTVTVSSGGGGSDIQMTQSPSSLSASVGDRVTITCRASQDIRNYLNWYQQKPGKAPKLLIYYTSRLHSGVPSRFSGSGSGTDFTFTISSLQPEDIATYYCQQGNTLPWTFGQGTKLEIKRGGGGSGGGGSGGGGSQVQLVQSGAEVKKPGSSVKVSCKASGGTFSGYTMNWVRQAPGQGLEWMGLINPYKGVSTYNGKFKDRVTITADKSTSTAYMELSSLRSEDTAVYYCARSGYYGDSDWYFDVWGQGTLVTVSSGGGGSDIQLTQSPSFLSASVGDRVTITCRASQSIGTNIHWYQQKPGKAPKLLIKYASESISGVPSRFSGSGSGTEFTLTISSLQPEDFATYYCQQNNNWPTTFGAGTKLEIKRAAAGGSGGGGSGGGTEVQLVESGGGLVQPGGSLRLSCAASGFSLTNYGVHWVRQAPGKGLEWLGVIWSGGNTDYNTPFTSRFTISRDNSKNTLYLQMNSLRAEDTAVYYCARALTYYDYEFAYWGQGTTVTVSSGGGGSGGGGSGGGGSDIQLTQSPSFLSASVGDRVTITCRASQSIGTNIHWYQQKPGKAPKLLIKYASESISGVPSRFSGSGSGTEFTLTISSLQPEDFATYYCQQNNNWPTTFGAGTKLEIKRSLHHHHHH
notes: the end number was counted from the printed lines; The His tag is part of the entry; also called scDb-scFv; trivalent, bispecific bisAb targeting EGFR and CD3
B2: scDbhu225xhuU3 (bispecific antibody)
chain: EVQLVESGGGLVQPGGSLRLSCAASGFSLTNYGVHWVRQAPGKGLEWLGVIWSGGNTDYNTPFTSRFTISRDNSKNTLYLQMNSLRAEDTAVYYCARALTYYDYEFAYWGQGTTVTVSSGGGGSDIQMTQSPSSLSASVGDRVTITCRASQDIRNYLNWYQQKPGKAPKLLIYYTSRLHSGVPSRFSGSGSGTDFTFTISSLQPEDIATYYCQQGNTLPWTFGQGTKLEIKRGGGGSGGGGSGGGGSQVQLVQSGAEVKKPGSSVKVSCKASGGTFSGYTMNWVRQAPGQGLEWMGLINPYKGVSTYNGKFKDRVTITADKSTSTAYMELSSLRSEDTAVYYCARSGYYGDSDWYFDVWGQGTLVTVSSGGGGSDIQLTQSPSFLSASVGDRVTITCRASQSIGTNIHWYQQKPGKAPKLLIKYASESISGVPSRFSGSGSGTEFTLTISSLQPEDFATYYCQQNNNWPTTFGAGTKLEIKRAAAGGSGGGGSGGGTGGGGSLHHHHHH
notes: the end number was counted from the printed lines; The His tag is part of the entry; also called bispecific scDb targeting CD3 and EGFR
B3: scDb3-43xhuU3-His (bispecific antibody)
chain: QVQLQQSGPGLVKPSQTLSLTCAISGDSVSSNRAAWNWIRQSPSRGLEWLGRTYYRSKWYNDYAQSLKSRITINPDTPKNQFSLQLNSVTPEDTAVYYCARDGQLGLDALDIWGQGTMVTVSSGGGGSDIQMTQSPSSLSASVGDRVTITCRASQDIRNYLNWYQQKPGKAPKLLIYYTSRLHSGVPSRFSGSGSGTDFTFTISSLQPEDIATYYCQQGNTLPWTFGQGTKLEIKRGGGGSGGGGSGGGGSQVQLVQSGAEVKKPGSSVKVSCKASGGTFSGYTMNWVRQAPGQGLEWMGLINPYKGVSTYNGKFKDRVTITADKSTSTAYMELSSLRSEDTAVYYCARSGYYGDSDWYFDVWGQGTLVTVSSGGGGSQAGLTQPPAVSVAPGQTASITCGRDNIGSRSVHWYQQKPGQAPVLVVYDDSDRPAGIPERFSGSNYENTATLTISRVEAGDEADYYCQVWGITSDHVVFGGGTKLTVLAAAHHHHHH
notes: Single-chain diabody, bivalent: one HER3 site (3-43) and one CD3 site (huU3, humanized UCHT1); The His tag is part of the entry; also called anti-HER3×CD3 bispecific scDb
B4: scDb3-43xhuU3-scFv3-43-His (bispecific antibody)
chain: QVQLQQSGPGLVKPSQTLSLTCAISGDSVSSNRAAWNWIRQSPSRGLEWLGRTYYRSKWYNDYAQSLKSRITINPDTPKNQFSLQLNSVTPEDTAVYYCARDGQLGLDALDIWGQGTMVTVSSGGGGSDIQMTQSPSSLSASVGDRVTITCRASQDIRNYLNWYQQKPGKAPKLLIYYTSRLHSGVPSRFSGSGSGTDFTFTISSLQPEDIATYYCQQGNTLPWTFGQGTKLEIKRGGGGSGGGGSGGGGSQVQLVQSGAEVKKPGSSVKVSCKASGGTFSGYTMNWVRQAPGQGLEWMGLINPYKGVSTYNGKFKDRVTITADKSTSTAYMELSSLRSEDTAVYYCARSGYYGDSDWYFDVWGQGTLVTVSSGGGGSQAGLTQPPAVSVAPGQTASITCGRDNIGSRSVHWYQQKPGQAPVLVVYDDSDRPAGIPERFSGSNYENTATLTISRVEAGDEADYYCQVWGITSDHVVFGGGTKLTVLAAAGGSGGGGSGGGTQVQLQQSGPGLVKPSQTLSLTCAISGDSVSSNRAAWNWIRQSPSRGLEWLGRTYYRSKWYNDYAQSLKSRITINPDTPKNQFSLQLNSVTPEDTAVYYCARDGQLGLDALDIWGQGTMVTVSSGGGGSGGGGSGGGGSQAGLTQPPAVSVAPGQTASITCGRDNIGSRSVHWYQQKPGQAPVLVVYDDSDRPAGIPERFSGSNYENTATLTISRVEAGDEADYYCQVWGITSDHVVFGGGTKLTVLGSLHHHHHH
notes: Single chain, trivalent: two HER3 sites (3-43) and one CD3 site (huU3); The His tag is part of the entry; also called scDb-scFv; trivalent anti-HER3×anti-CD3 bsAb

Columns and labels:
EGFR [1] = molecular target: T1, EGFR (UniProt P00533 25-1210, limits assumed); assay: flow cytometry, serial dilution on LIM1215 cells (EGFR-expressing), PE anti-His detection
T1 construct: whole, on cells; the cell lines are human tumor lines
Method: (§1) Binding analysis of scDb and scDb-scFv was performed by flow cytometry using tumor cell lines with different EGFR-expression levels (Table 7). Adherent cells were washed with PBS and shortly trypsinized at 37° C. Trypsin was quenched with FCS-containing medium and removed by centrifugation (500×g, 5 min.). 1×10⁵ target cells/well (FaDu, Lim1215, T-47-D and SKBR-3) were incubated with a serial dilution of scDb or scDb-scFv for 1 h at 4° C. After removing excess of recombinant protein by washing with PBA (PBS, 2% FBS, and 0.02% sodium azide), bound protein was detected using PE-conjugated anti-hexahistidyl tag mAb (Miltenyi Biotec). Fluorescence was measured using MACSquant Analyzer 10 (Miltenyi Biotec) and data were analyzed using FlowJo (Tree Star). Relative median fluorescence intensities (MFI) were calculated as followed: relative MFI=((MFIₛₐₘₚₗₑ-(MFIdetection-MFIcells))/MFIcells).

EGFR [2] = molecular target: T1, EGFR; assay: flow cytometry, serial dilution on FaDu cells (EGFR-expressing), PE anti-His detection
Method: as §1

EGFR [3] = molecular target: T1, EGFR; assay: flow cytometry, serial dilution on SKBR-3 cells (EGFR-expressing), PE anti-His detection
Method: as §1

CD3 [4] = molecular target: T2, CD3 (UniProt P07766 23-207); assay: flow cytometry, serial dilution on Jurkat cells (CD3-expressing), PE anti-His detection
T2 construct: whole, on cells; on cells it stands in the TCR/CD3 complex; also called CD3 on Jurkat cells

EGFR [5] = molecular target: T1, EGFR; assay: flow cytometry, serial dilution on T-47-D cells (EGFR-expressing), PE anti-His detection
Method: as §1

EGFR [6] = molecular target: T1, EGFR; assay: cell-based or functional assay
HER3 [7] = molecular target: T3, HER3 (UniProt P21860 20-1342, limits assumed); assay: flow cytometry, serial dilution on MCF-7 cells (HER3-expressing), PE anti-His detection
T3 construct: whole, on cells; the cell lines are human tumor lines
Method: (§2) Cell binding studies were performed by flow cytometry using cell lines with different expression levels of HER3 (Table 1). Adherent cells were washed with PBS and shortly trypsinized at 37° C. Trypsin was quenched with FCS-containing medium and removed by centrifugation (500×g, 5 min.). 1×10⁵ target cells (MCF-7, Jurkat, BT-474, FaDu, or LIM1215) were incubated with a serial dilution of recombinant proteins for 1 hour at 4° C. Bound protein was detected using a PE-conjugated anti-hexahistidyl tag mAb (Miltenyi Biotec). Incubation and washing steps were performed in PBS, 2% FBS, and 0.02% sodium azide. Fluorescence was measured by MACSQuant VYB (Miltenyi Biotec) and data were analyzed using FlowJo (Tree Star). Relative median fluorescence intensities (MFI) were calculated as followed: relative MFI=((MFIₛₐₘₚₗₑ−(MFIdetection−MFIcells))/MFIcells).

HER3 [8] = molecular target: T3, HER3; assay: flow cytometry on HER3-expressing cell lines, EC50 compared with scDb-scFv
Method: as §2

HER3 [9] = molecular target: T3, HER3; assay: cell-based or functional assay
HER3 [10] = molecular target: T3, HER3; assay: cell-based or functional assay; remark: listed apart in the source
CD3 [11] = molecular target: T2, CD3; assay: flow cytometry, serial dilution on Jurkat cells (CD3-expressing), PE anti-His detection; remark: listed apart in the source
Method: as §2

HER3 [12] = molecular target: T3, HER3; assay: flow cytometry, serial dilution on LIM1215 cells (HER3-expressing), PE anti-His detection
Method: as §2

HER3 [13] = molecular target: T3, HER3; assay: flow cytometry, serial dilution on BT-474 cells (HER3-expressing), PE anti-His detection
Method: as §2

HER3 [14] = molecular target: T3, HER3; assay: flow cytometry, serial dilution on FaDu cells (HER3-expressing), PE anti-His detection
Method: as §2

Binder | EC50 (EGFR [1]) [nM] | EC50 (EGFR [2]) [nM] | EC50 (EGFR [3]) [nM] | EC50 (CD3 [4]) [nM] | EC50 (EGFR [5]) [nM] | EC50 of PBMC cytotoxicity on FaDu cells, E:T 10:1 (EGFR [6]) [pM] | EC50 of PBMC cytotoxicity on LIM1215 cells, E:T 10:1 (EGFR [6]) [pM] | EC50 of PBMC cytotoxicity on SKBR-3 cells, E:T 10:1 (EGFR [6]) [pM] | EC50 of PBMC cytotoxicity on T-47-D cells, E:T 10:1 (EGFR [6]) [nM] | EC50 (HER3 [7]) [nM] | EC50 of CD69 expression on CD4+ T-cells (CD4+CD69+), MCF-7 co-culture (HER3 [9]) [pM] | EC50 of CD69 expression on CD8+ T-cells (CD8+CD69+), MCF-7 co-culture (HER3 [9]) [pM] | EC50 of IFN-γ release, PBMCs co-cultured with MCF-7 cells (HER3 [9]) [pM] | EC50 of IL-2 release, PBMCs co-cultured with MCF-7 cells (HER3 [9]) [pM] | EC50 of proliferation of CD4+ T-cells, MCF-7 co-culture (HER3 [9]) [pM] | EC50 of proliferation of CD8+ T-cells, MCF-7 co-culture (HER3 [9]) [pM] | EC50 of PBMC cytotoxicity on BT-474 cells, E:T 5:1 (HER3 [10]) [pM] | EC50 of PBMC cytotoxicity on BT-474 cells, E:T 10:1 (HER3 [10]) [pM] | EC50 of PBMC cytotoxicity on FaDu cells, E:T 5:1 (HER3 [10]) [pM] | EC50 of PBMC cytotoxicity on FaDu cells, E:T 10:1 (HER3 [10]) [pM] | other results
B1 | 0.5 | 0.5 | 0.3 | 6.4 | 0.09 | 9 | 7 | 2 | 0.09 |  |  |  |  |  |  |  |  |  |  |  | 
B2 | 1.6 | 1.4 | 2.3 | 5.4 | 1.1 | > 10000 | > 10000 | > 10000 | > 10 |  |  |  |  |  |  |  |  |  |  |  | 
B3 |  |  |  |  |  |  |  |  |  | 4.7 | 100 | 160 | 609 | 404 | 500 | 300 | 170 | 200 | 400 | 300 | fold weaker binding than scDb-scFv (HER3 [8]): ≤ 50 fold; EC50 of PBMC cytotoxicity on LIM1215 cells, E:T 5:1 (HER3 [10]): 80 pM; EC50 of PBMC cytotoxicity on LIM1215 cells, E:T 10:1 (HER3 [10]): 30 pM; EC50 of PBMC cytotoxicity on MCF-7 cells, E:T 5:1 (HER3 [10]): 70 pM; EC50 of PBMC cytotoxicity on MCF-7 cells, E:T 10:1 (HER3 [10]): 14 pM; EC50 (CD3 [11]): 1.64 nM; EC50 (HER3 [12]): 11.7 nM; EC50 (HER3 [13]): 9.7 nM
B4 |  |  |  |  |  |  |  |  |  | 0.03 | 3 | 20 | 567 | 403 | 80 | 90 | 2 | 7 | 200 | 100 | EC50 (HER3 [14]): 0.1 nM; EC50 of PBMC cytotoxicity on LIM1215 cells, E:T 5:1 (HER3 [10]): 3 pM; EC50 of PBMC cytotoxicity on LIM1215 cells, E:T 10:1 (HER3 [10]): 1 pM; EC50 of PBMC cytotoxicity on MCF-7 cells, E:T 5:1 (HER3 [10]): 3 pM; EC50 of PBMC cytotoxicity on MCF-7 cells, E:T 10:1 (HER3 [10]): 1 pM; EC50 (CD3 [11]): 4 nM; EC50 (HER3 [12]): 0.2 nM; EC50 (HER3 [13]): 0.2 nM
